These results are taken from patent US20220227829A1 (SHANGHAI GP BIOTECH, published 2022).

The target of experiment [1] is T1, CD25 protein (from Example 2).
T1 chain: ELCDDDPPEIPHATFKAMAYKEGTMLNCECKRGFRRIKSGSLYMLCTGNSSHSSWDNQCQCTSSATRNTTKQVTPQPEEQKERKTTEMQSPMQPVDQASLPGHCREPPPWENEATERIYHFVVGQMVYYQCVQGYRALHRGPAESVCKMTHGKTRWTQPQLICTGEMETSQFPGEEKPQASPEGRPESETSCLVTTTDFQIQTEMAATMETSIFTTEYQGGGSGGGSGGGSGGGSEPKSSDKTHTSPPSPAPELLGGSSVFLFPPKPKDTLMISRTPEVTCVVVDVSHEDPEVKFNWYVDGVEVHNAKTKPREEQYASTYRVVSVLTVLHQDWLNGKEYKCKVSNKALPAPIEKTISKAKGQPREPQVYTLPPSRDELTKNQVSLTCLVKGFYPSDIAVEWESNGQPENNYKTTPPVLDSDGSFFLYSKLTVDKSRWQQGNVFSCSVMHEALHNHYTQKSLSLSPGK
Briefly: ELISA on coated CD25. The method, then:
(§1) CD25 (from Example 2) was coated on a 96-well high adsorption microtiter plate (3590, Costar), washed and blocked. The sample to be tested was diluted to an appropriate concentration and added to wells.
On the technique in general: ELISA stands for enzyme-linked immunosorbent assay.

For experiment [2], the target named is T2, CD25 on the surface of CTLL-2 cells (mouse cytotoxic T lymphocyte cell line) (mouse, UniProt P01590 22-268).
T2 sequence (looked up): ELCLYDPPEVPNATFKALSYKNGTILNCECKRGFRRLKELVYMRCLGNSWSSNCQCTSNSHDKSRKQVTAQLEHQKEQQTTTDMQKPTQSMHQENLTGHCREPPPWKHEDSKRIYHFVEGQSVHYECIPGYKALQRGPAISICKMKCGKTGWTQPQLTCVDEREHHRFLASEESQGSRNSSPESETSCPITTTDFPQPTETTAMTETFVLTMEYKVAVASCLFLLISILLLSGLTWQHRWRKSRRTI
Briefly: cell-based or functional assay.

For experiment [3], the target named is T3, CD25 on the surface of NK92 cells (human NK cell line) (human, UniProt P01589 22-272).
T3 sequence (looked up): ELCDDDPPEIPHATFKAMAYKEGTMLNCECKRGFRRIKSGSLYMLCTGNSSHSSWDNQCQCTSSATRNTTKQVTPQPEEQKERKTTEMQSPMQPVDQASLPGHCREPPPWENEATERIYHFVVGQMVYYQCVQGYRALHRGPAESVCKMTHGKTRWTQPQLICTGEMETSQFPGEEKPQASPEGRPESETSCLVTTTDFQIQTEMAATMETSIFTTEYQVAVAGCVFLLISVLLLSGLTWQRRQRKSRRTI
Nature of the experiment: cell-based or functional assay.

For experiment [4], the target named is T1, CD25 protein (from Example 2). Nature of the experiment: ELISA on coated CD25, sample at 1 ug/ml, relative to rhIL-2 = 100%. The method, then:
as §1

Experiment [5] shares this target. Briefly: ELISA on coated CD25, sample at 0.2 ug/ml, relative to rhIL-2 = 100%. As to the method:
as §1

The target is the same in experiment [6]. Briefly: ELISA on coated CD25, sample at 0.04 ug/ml, relative to rhIL-2 = 100%. As to the method:
as §1

For experiment [7], the target named is T4, CD25 on the surface of CTLL-2 cells (mouse cytotoxic T lymphocyte cell line) (mouse) (UniProt P01590).
T4 sequence (looked up): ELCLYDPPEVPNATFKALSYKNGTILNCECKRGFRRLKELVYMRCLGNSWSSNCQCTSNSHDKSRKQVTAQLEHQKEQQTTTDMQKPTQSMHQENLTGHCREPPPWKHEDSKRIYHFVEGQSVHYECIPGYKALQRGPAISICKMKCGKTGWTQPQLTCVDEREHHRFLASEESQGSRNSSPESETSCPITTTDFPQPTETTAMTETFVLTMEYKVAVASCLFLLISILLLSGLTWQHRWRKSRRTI
Briefly: cell-based or functional assay.

The target in experiment [8] is CD25 on the surface of NK92 cells (human NK cell line) (human) (UniProt P01589). Briefly: cell-based or functional assay.
The target of experiment [9] is T2, CD25 on the surface of CTLL-2 cells …. Briefly: cell-based or functional assay. The source holds these as a separate data set.
Experiment [10] deals with T3, CD25 on the surface of NK92 cells …. Nature of the experiment: cell-based or functional assay. This is another data set of the same source.

Like-named read-outs stand apart in the source and are kept apart here.

B1: IL-2gm9 (T3A, M39N, A73T), HIS tag (ligand)
chain: APASSSTKKTQLQLEHLLLDLQMILNGINNYKNPKLTRNLTFKFYMPKKATELKHLQCLEEELKPLEEVLNLTQSKNFHLRPRDLISNINVIVLELKGSETTFMCEYADETATIVEFLNRWITFAQSIISTLTHHHHHH
notes: Expressed in Expi293F cells; also called IL-2gm9-His
Turning to B1, the binding result in experiment [1] is “no binding (tested: 1 ug/ml)”. For the same molecule, in [2], the “EC50 (nM), CTLL-2 cell proliferation” value came out at 2.38 nM and the “Potency relative to rhIL-2 (%), CTLL-2 cell proliferation” value was determined as 0.122%. In experiment [3], the “EC50 (nM), NK92 cell proliferation” value came to 1.07 nM and the “Potency relative to rhIL-2 (%), NK92 cell proliferation” value is 0.181%. In addition, the “Binding activity (%)” value in experiment [4] is 0.88%. Also, in [5], the “Binding activity (%)” value worked out at 1.18%. The “Binding activity (%)” value in experiment [6] was found to be 1.51%.

B2: IL-2gm14 (T3A, M39N, A73T, D109N), HIS tag (ligand)
chain: APASSSTKKTQLQLEHLLLDLQMILNGINNYKNPKLTRNLTFKFYMPKKATELKHLQCLEEELKPLEEVLNLTQSKNFHLRPRDLISNINVIVLELKGSETTFMCEYANETATIVEFLNRWITFAQSIISTLTHHHHHH
notes: Expressed in Expi293F cells; also called IL-2gm14-His
Consider B2, for which the binding result in [1] is given as “no binding (tested: 1 ug/ml)”. The “EC50 (nM), CTLL-2 cell proliferation” value in [2] came out at 47.9 nM. For the same molecule, in experiment [2], the “Potency relative to rhIL-2 (%), CTLL-2 cell proliferation” value stood at 0.006%. The “EC50 (nM), NK92 cell proliferation” value in experiment [3] worked out at 23.2 nM. Moreover, the “Potency relative to rhIL-2 (%), NK92 cell proliferation” value in [3] came out at 0.008%. The “Binding activity (%)” value in experiment [4] turned out to be 0.74%; in [5], 0.99%; in experiment [6], 1.51%.

B3: IL-2gm15 (T3A, M39N, K49N, D109N), HIS tag (ligand)
chain: APASSSTKKTQLQLEHLLLDLQMILNGINNYKNPKLTRNLTFKFYMPKNATELKHLQCLEEELKPLEEVLNLAQSKNFHLRPRDLISNINVIVLELKGSETTFMCEYANETATIVEFLNRWITFAQSIISTLTHHHHHH
notes: Expressed in Expi293F cells; also called IL-2gm15-His
As for B3, the binding result in experiment [1] is “no binding (tested: 1 ug/ml)”. For the same molecule, in [2], the “EC50 (nM), CTLL-2 cell proliferation” value worked out at 16.5 nM and the “Potency relative to rhIL-2 (%), CTLL-2 cell proliferation” value turned out to be 0.018%. Further, in experiment [3], the “EC50 (nM), NK92 cell proliferation” value came out at 7.76 nM and the “Potency relative to rhIL-2 (%), NK92 cell proliferation” value is 0.025%. Moreover, in experiment [4], the “Binding activity (%)” value amounted to 0.68%. The “Binding activity (%)” value in experiment [5] came to 0.99%. In experiment [6], the “Binding activity (%)” value turned out to be 1.36%.

B4: IL-2gm10 (T3A, M39N, D109N), HIS tag (ligand)
chain: APASSSTKKTQLQLEHLLLDLQMILNGINNYKNPKLTRNLTFKFYMPKKATELKHLQCLEEELKPLEEVLNLAQSKNFHLRPRDLISNINVIVLELKGSETTFMCEYANETATIVEFLNRWITFAQSIISTLTHHHHHH
notes: Expressed in Expi293F cells; also called IL-2gm10-His
Take B4: the binding result in [1] is given as “no binding (tested: 1 ug/ml)”. In [2], the “EC50 (nM), CTLL-2 cell proliferation” value amounted to 15.6 nM and the “Potency relative to rhIL-2 (%), CTLL-2 cell proliferation” value was found to be 0.019%. Besides, in experiment [3], the “EC50 (nM), NK92 cell proliferation” value worked out at 12.7 nM and the “Potency relative to rhIL-2 (%), NK92 cell proliferation” value was determined as 0.015%. Moreover, in experiment [4], the “Binding activity (%)” value came out at 0.88%. The “Binding activity (%)” value in experiment [5] stood at 1.08%. For the same molecule, the “Binding activity (%)” value in experiment [6] was determined as 1.51%.

B5: IL-2gm4 (T3A, K49N, A73T), IgG1-Fc tag (Fc fusion)
chain: APASSSTKKTQLQLEHLLLDLQMILNGINNYKNPKLTRMLTFKFYMPKNATELKHLQCLEEELKPLEEVLNLTQSKNFHLRPRDLISNINVIVLELKGSETTFMCEYADETATIVEFLNRWITFAQSIISTLTGGGSGGGSGGGSGGGSEPKSSDKTHTSPPSPAPELEGGSSVFLFPPKPKDTLMISRTPEVTCVVVDVSHEDPEVKFNWYVDGVEVHNAKTKPREEQYASTYRVVSVLTVLHQDWLNGKAYACAVSNKALPAPIEKTISKAKGQPREPQVYTLPPSREEMTKNQVSLTCLVKGFYPSDIAVEWESNGQPENNYKTTPPVLDSDGSFFLYSKLTVDKSRWQQGNVFSCSVMHEALHNHYTQKSLSLSPGK
As for B5, in experiment [7], the EC50 (nM), CTLL-2 cell proliferation amounted to 0.00919 nM and the Potency relative to rhIL-2 (%), CTLL-2 cell proliferation was 31.5%. For the same molecule, in experiment [8], the EC50 (nM), NK92 cell proliferation worked out at 0.0152 nM and the Potency relative to rhIL-2 (%), NK92 cell proliferation turned out to be 34.8%.

B6: IL-2gm5 (T3A, M39N, K49N, A73T), IgG1-Fc tag (Fc fusion)
chain: APASSSTKKTQLQLEHLLLDLQMILNGINNYKNPKLTRNLTFKFYMPKNATELKHLQCLEEELKPLEEVLNLTQSKNFHLRPRDLISNINVIVLELKGSETTFMCEYADETATIVEFLNRWITFAQSIISTLTEPKSSDKTHTSPPSPAPELEGGSSVFLFPPKPKDTLMISRTPEVTCVVVDVSHEDPEVKFNWYVDGVEVHNAKTKPREEQYASTYRVVSVLTVLHQDWLNGKAYACAVSNKALPAPIEKTISKAKGQPREPQVYTLPPSREEMTKNQVSLTCLVKGFYPSDIAVEWESNGQPENNYKTTPPVLDSDGSFFLYSKLTVDKSRWQQGNVFSCSVMHEALHNHYTQKSLSLSPGK
Turning to B6, in experiment [7], the EC50 (nM), CTLL-2 cell proliferation turned out to be 0.173 nM and the Potency relative to rhIL-2 (%), CTLL-2 cell proliferation is 1.68%. Moreover, in [8], the EC50 (nM), NK92 cell proliferation was 0.0711 nM and the Potency relative to rhIL-2 (%), NK92 cell proliferation is 7.42%.

B7: IL-2gm6 (T3A, M39N, K49N, A73T, D109N), IgG1-Fc tag (Fc fusion)
chain: APASSSTKKTQLQLEHLLLDLQMILNGINNYKNPKLTRNLTFKFYMPKNATELKHLQCLEEELKPLEEVLNLTQSKNFHLRPRDLISNINVIVLELKGSETTFMCEYANETATIVEFLNRWITFAQSIISTLTEPKSSDKTHTSPPSPAPELEGGSSVFLFPPKPKDTLMISRTPEVTCVVVDVSHEDPEVKFNWYVDGVEVHNAKTKPREEQYASTYRVVSVLTVLHQDWLNGKAYACAVSNKALPAPIEKTISKAKGQPREPQVYTLPPSREEMTKNQVSLTCLVKGFYPSDIAVEWESNGQPENNYKTTPPVLDSDGSFFLYSKLTVDKSRWQQGNVFSCSVMHEALHNHYTQKSLSLSPGK
B7: in experiment [7], the EC50 (nM), CTLL-2 cell proliferation came out at 5.95 nM and the Potency relative to rhIL-2 (%), CTLL-2 cell proliferation was determined as 0.049%. Besides, in experiment [8], the EC50 (nM), NK92 cell proliferation is 0.824 nM and the Potency relative to rhIL-2 (%), NK92 cell proliferation worked out at 0.641%.

B8: IL-2qm (T3A, F42A, Y45A, L72G), IgG1-Fc tag (Fc fusion)
chain: APASSSTKKTQLQLEHLLLDLQMILNGINNYKNPKLTRMLTAKFAMPKKATELKHLQCLEEELKPLEEVLNGAQSKNFHLRPRDLISNINVIVLELKGSETTFMCEYADETATIVEFLNRWITFAQSIISTLTEPKSSDKTHTSPPSPAPELEGGSSVFLFPPKPKDTLMISRTPEVTCVVVDVSHEDPEVKFNWYVDGVEVHNAKTKPREEQYASTYRVVSVLTVLHQDWLNGKAYACAVSNKALPAPIEKTISKAKGQPREPQVYTLPPSREEMTKNQVSLTCLVKGFYPSDIAVEWESNGQPENNYKTTPPVLDSDGSFFLYSKLTVDKSRWQQGNVFSCSVMHEALHNHYTQKSLSLSPGK
notes: copies 2 rests on that; also called IL-2qm-Fc; Rocheglicat (CN103492411B)
For the molecule B8, the binding result in experiment [1] is reported as “no binding (tested: 1 ug/ml)”. Besides, the “Potency relative to rhIL-2 (%), CTLL-2 cell proliferation” value in experiment [9] came to 0%. The “EC50 (nM), NK92 cell proliferation” value in experiment [10] was determined as 0.306 nM. Moreover, the “Potency relative to rhIL-2 (%), NK92 cell proliferation” value in experiment [10] amounted to 1.73%. Moreover, the “Binding activity (%)” value in experiment [4] was 0.74%; in experiment [5], 0.99%; in experiment [6], 1.51%.
